Reference: patent US10556936B2, “Immunogenic proteins and fragments thereof from allergenic mites” (ALK-ABELLÓ A/S, priority 2016, dated 2020)

Key:
Assay type in all cases: cell-based, human
[1] = tested on: basophils in whole blood from HDM allergic donors; assay: Basophil Activation Test (BAT); conditions: blood from HDM allergic individuals (n=14)
Outline: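 Basophil activation was read by flow cytometry as increased surface activation markers. The stimulus was a 1 h exposure of blood from 14 HDM-allergic donors to test proteins or major mite allergens at graded concentrations (e.g. 1–1000 ng/ml).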

[2] = tested on: T cell lines obtained from HDM allergic individuals and non-allergics; assay: In vitro T cell proliferation test in T cell lines (Example 3); conditions: 0.5 or 2 ug/ml, 72 h; for % responders of in-vitro T cell proliferation test, Allergic: T cell lines from HDM allergic individuals (n=30); for % responders of in-vitro T cell proliferation test, Non-allergics: T cell lines from non-allergics (n=8)
Outline: (§1)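 Freshly isolated PBMC (5×10^6/ml) from mite-allergic patients or non-allergics cultured 5 days with test protein up to 10 ug/ml; IFN-gamma, IL-9, IL-10, IL-17, IL-31 in supernatants by multiplex immunoassay. T cell lines, raised 3 weeks on HDM extract, tested at 0.5 or 2 ug/ml protein in 72 h proliferation assay.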

[3] = tested on: PBMC cells obtained from mite allergic patients and non-allergics; assay: Ex vivo stimulation of PBMC: cytokine production (IFN-gamma, IL-9, IL-10, IL-17, IL-31)
Outline: as §1

Molecule	# of individuals of 14 with positive BAT test ([1]; 1 ng/ml)	# of individuals of 14 with positive BAT test ([1]; 10 ng/ml)	# of individuals of 14 with positive BAT test ([1]; 100 ng/ml)	# of individuals of 14 with positive BAT test ([1]; 1000 ng/ml)	% responders of in-vitro T cell proliferation test, Allergic [2] [%]	% responders of in-vitro T cell proliferation test, Non-allergics [2] [%]	% HDM allergic individuals with cytokine production in ex-vivo T cell assay IL-5 [3] [%]	% HDM allergic individuals with cytokine production in ex-vivo T cell assay IL-9 [3] [%]	% HDM allergic individuals with cytokine production in ex-vivo T cell assay IL-10 [3] [%]	% HDM allergic individuals with cytokine production in ex-vivo T cell assay IL-13 [3] [%]	% HDM allergic individuals with cytokine production in ex-vivo T cell assay IL-17 [3] [%]	% HDM allergic individuals with cytokine production in ex-vivo T cell assay IL-31 [3] [%]	% HDM allergic individuals with cytokine production in ex-vivo T cell assay INF-g [3] [%]	% non-allergic individuals with cytokine production in ex-vivo T cell assay IL-5 [3] [%]	% non-allergic individuals with cytokine production in ex-vivo T cell assay IL-9 [3] [%]	% non-allergic individuals with cytokine production in ex-vivo T cell assay IL-10 [3] [%]	% non-allergic individuals with cytokine production in ex-vivo T cell assay IL-13 [3] [%]	% non-allergic individuals with cytokine production in ex-vivo T cell assay IL-17 [3] [%]	% non-allergic individuals with cytokine production in ex-vivo T cell assay IL-31 [3] [%]	% non-allergic individuals with cytokine production in ex-vivo T cell assay INF-g [3] [%]
A025: house dust mite protein; SEQ ID NO: 17 (Der f), 18 (Der p) (protein) QSLFVDYNDYSCGSSQNETNELIQEFKIFKKNINGNENFKKINDFIEKARLFRDNAAKQMLEIDQQLLTLNVIQISQRIKLENNKIQCEKLTKFSELLSMQLLAYEVGMFEFAEEIDPNIDFDRKMKNFLDETSRLFNLAEFEKLEKKFRNATSIEKLKNYIDGELVALNDYINEFLKDIIMSEFTVQSRYYLNFSIEDQVQIDSTLMTFSALKILLNDLKDYLEHLDN	1	1	1	5	0	0	13	6	6	13	0	0	0	0	0	0	0	0	0	0
A023: house dust mite protein; SEQ ID NO: 23 (Der f), 24 (Der p) (protein) DPVQQRPTLRGVTVRVGPFVKENNGKFEGFIPDLVQAISEKVGFDYTLYLSPDGRYGNVISDGNVTGMIGEVYNKKADFAAADLTMTEARENYITFTEPFMINQLAALIRREDAEGLNTLEDLAKAQETFPKRKRIVLGTLRNGATNYFLSKSDDPLAKKIYEQIKADDQSVVKSISEGVERVDKQGGYAFIMESASAEHEIANNCKLTMLLDWRNLFPRKYAFALPKDSPYLEHFNNAIKQLNSEGKIAELRRKYWANNCAENKTKDDKN	1	1	1	1	21	0	13	13	6	13	0	0	0	0	0	0	0	0	0	0
A024: house dust mite protein; SEQ ID NO: 11 (Der f), 12 (Der p), 318 (Blo t) (protein) MSISAHGGGLVNGIAGMENKFTVFTSGKPVSGLTVAFEGPTKPEINFNSTKDGSVDVGYIPKAGGQYKIHIKYEGKEIVGSPFKCNISGDESTHRKLTEKVKVGGPNISTGKVNQDNQLTIDCKEAGITGGISFAMEGPAKVEVSFRNNNDGTITVIYKPPTPGDYKLHLKFNDIHLPGSPYPIVVSA	2	2	3	3	21	0	13	6	25	6	6	0	0	0	0	17	0	0	0	0
A022: house dust mite protein; SEQ ID NO: 19 (Der f), 20 (Der p), 317 (Blo t) (protein) NWQMVWQDEFNGGHLDQNHWEFETGGGGWGNNELEFYTANRSQNVRVENGHLVIDVRVESYGGRDFTSGRIHSKQAWAYGKFEARARLPSGHHLWPAIWMFPRDSKYGPWAASGEIDIMEYRGDVHDKIEGTIHYGGQWPNNIYTGSGPHHFNVDFSKDFHNFAVEWDTKEIRWYMDGNKYFSVNIDRNMWSGKGNNPYNKNGQPFDQPFRWILNVAVGGNFFGPGPYVTPDQARHWQKHTMEIDYVRVYQWR	0	0	3	5	29	0	31	6	6	13	0	0	0	0	0	0	0	0	0	17
